Residue numbers refer to the chain shown, from its start. No end group written: not given here.
T1: estrogen receptor (ER) α as a carboxy-terminal fusion to the Gal4-activation domain (yeast, UniProt P03372 1-595, limits assumed)
T1 sequence (looked up): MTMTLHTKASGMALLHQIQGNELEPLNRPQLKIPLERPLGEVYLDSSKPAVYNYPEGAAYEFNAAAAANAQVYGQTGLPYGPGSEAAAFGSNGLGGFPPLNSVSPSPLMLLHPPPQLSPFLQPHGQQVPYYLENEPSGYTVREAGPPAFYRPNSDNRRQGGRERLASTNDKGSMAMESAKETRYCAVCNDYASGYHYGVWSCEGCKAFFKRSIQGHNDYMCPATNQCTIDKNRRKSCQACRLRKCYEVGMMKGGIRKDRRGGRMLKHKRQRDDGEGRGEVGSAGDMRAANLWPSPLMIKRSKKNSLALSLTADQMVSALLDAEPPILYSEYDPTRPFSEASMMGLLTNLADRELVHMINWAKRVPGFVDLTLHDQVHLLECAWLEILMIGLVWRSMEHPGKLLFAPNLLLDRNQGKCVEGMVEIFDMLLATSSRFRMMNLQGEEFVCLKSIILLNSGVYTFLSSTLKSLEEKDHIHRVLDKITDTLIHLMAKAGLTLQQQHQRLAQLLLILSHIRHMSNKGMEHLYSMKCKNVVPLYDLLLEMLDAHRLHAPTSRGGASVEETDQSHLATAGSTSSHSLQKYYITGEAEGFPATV

T2: Gal4 transcriptional activation domain (AD) fused in frame with AR (yeast, UniProt P10275 1-920, limits assumed)
T2 sequence (looked up): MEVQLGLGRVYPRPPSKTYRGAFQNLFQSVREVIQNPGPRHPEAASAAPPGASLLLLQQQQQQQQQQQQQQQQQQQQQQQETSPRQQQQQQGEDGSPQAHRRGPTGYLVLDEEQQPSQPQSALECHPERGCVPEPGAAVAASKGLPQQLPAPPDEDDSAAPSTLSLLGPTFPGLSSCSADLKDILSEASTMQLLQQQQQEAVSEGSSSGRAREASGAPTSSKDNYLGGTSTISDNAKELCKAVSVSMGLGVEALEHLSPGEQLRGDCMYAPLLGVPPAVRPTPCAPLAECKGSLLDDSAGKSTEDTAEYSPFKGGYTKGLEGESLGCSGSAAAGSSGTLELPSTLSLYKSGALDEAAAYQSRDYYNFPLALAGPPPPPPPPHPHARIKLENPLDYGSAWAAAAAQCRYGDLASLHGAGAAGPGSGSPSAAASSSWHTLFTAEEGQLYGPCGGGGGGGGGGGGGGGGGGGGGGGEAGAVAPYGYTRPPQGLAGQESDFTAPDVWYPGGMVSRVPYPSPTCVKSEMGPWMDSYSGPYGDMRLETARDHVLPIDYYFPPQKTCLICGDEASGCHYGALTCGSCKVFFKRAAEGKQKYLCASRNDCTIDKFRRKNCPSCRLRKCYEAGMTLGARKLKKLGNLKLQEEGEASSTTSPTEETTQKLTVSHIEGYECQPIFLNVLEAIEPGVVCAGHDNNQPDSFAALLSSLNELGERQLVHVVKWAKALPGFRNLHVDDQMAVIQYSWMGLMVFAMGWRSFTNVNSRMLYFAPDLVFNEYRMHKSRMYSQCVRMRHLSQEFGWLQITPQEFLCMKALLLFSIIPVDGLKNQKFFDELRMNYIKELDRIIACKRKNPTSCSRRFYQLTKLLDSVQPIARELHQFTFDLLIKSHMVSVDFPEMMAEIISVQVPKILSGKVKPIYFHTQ

T3: ER α (UniProt P03372 1-595, limits assumed)
T3 construct: also called estrogen receptor α; ERα-ERE
T3 sequence (looked up): T1 sequence (looked up)

B1: B6C4 (peptide)
chain: MKLLSSIEQACDICRLKKLKCSKEKPKCAKCLKNNWECRYSPKTKRSPLTRAHLTEVESRLERLEQLFLLIFPREDLDMILKMDSLQDIKALLTGLFVQDNVNKDAVTDRLASVETDMPLTLRQHRISATSSSEESSNKGQRQLTVSEFDRSSILVSLLSMVETLDLQPS
B2: B1A1 (peptide)
chain: MKLLSSIEQACDICRLKKLKCSKEKPKCAKCLKNNWECRYSPKTKRSPLTRAHLTEVESRLERLEQLFLLIFPREDLDMILKMDSLQDIKALLTGLFVQDNVNKDAVTDRLASVETDMPLTLRQHRISATSSSEESSNKGQRQLTVSEFCPVGLLVHLLMQ
B3: B1G8 (peptide)
chain: B2 chain with C150T, P151S, G153S, L154R, H157T, M160L
B4: B5H10 (peptide)
chain: MKLLSSIEQACDICRLKKLKCSKEKPKCAKCLKNNWECRYSPKTKRSPLTRAHLTEVESRLERLEQLFLLIFPREDLDMILKMDSLQDIKALLTGLFVQDNVNKDAVTDRLASVETDMPLTLRQHRISATSSSEESSNKGQRQLTVSEFSPPSSLLALLLGGKSLEPLPIRYKNVKRQFTSNSRGSVDLQPS
B5: B6A1 (peptide)
chain: MKLLSSIEQACDICRLKKLKCSKEKPKCAKCLKNNWECRYSPKTKRSPLTRAHLTEVESRLERLEQLFLLIFPREDLDMILKMDSLQDIKALLTGLFVQDNVNKDAVTDRLASVETDMPLTLRQHRISATSSSEESSNKGQRQLTVSEFTGSRLLLKLLRFPDSSTCSQA
B6: B3E2 (peptide)
chain: MKLLSSIEQACDICRLKKLKCSKEKPKCAKCLKNNWECRYSPKTKRSPLTRAHLTEVESRLERLEQLFLLIFPREDLDMILKMDSLQDIKALLTGLFVQDNVNKDAVTDRLASVETDMPLTLRQHRISATSSSEESSNKGQRQLTVSEFGGSVLLRELLCCYDALEPTTTR
B7: B8A10 (peptide)
chain: MKLLSSIEQACDICRLKKLKCSKEKPKCAKCLKNNWECRYSPKTKRSPLTRAHLTEVESRLERLEQLFLLIFPREDLDMILKMDSLQDIKALLTGLFVQDNVNKDAVTDRLASVETDMPLTLRQHRISATSSSEESSNKGQRQLTVSEFVNWDAVVPWSELVALLDLQPS
B8: B18C4 (peptide)
chain: MKLLSSIEQACDICRLKKLKCSKEKPKCAKCLKNNWECRYSPKTKRSPLTRAHLTEVESRLERLEQLFLLIFPREDLDMILKMDSLQDIKALLTGLFVQDNVNKDAVTDRLASVETDMPLTLRQHRISATSSSEESSNKGQRQLTVSEFDSPWVWFGGEPGLNLLDLQPS
B9: B22F6 (peptide)
chain: MKLLSSIEQACDICRLKKLKCSKEKPKCAKCLKNNWECRYSPKTKRSPLTRAHLTEVESRLERLEQLFLLIFPREDLDMILKMDSLQDIKALLTGLFVQDNVNKDAVTDRLASVETDMPLTLRQHRISATSSSEESSNKGQRQLTVSEFLSGLEMEVVLWHYGRLDLQPS
B10: M2H3 (peptide)
chain: MKLLSSIEQACDICRLKKLKCSKEKPKCAKCLKNNWECRYSPKTKRSPLTRAHLTEVESRLERLEQLFLLIFPREDLDMILKMDSLQDIKALLTGLFVQDNVNKDAVTDRLASVETDMPLTLRQHRISATSSSEESSNKGQRQLTVSEFRQSFVSEILGGGWLPLDLQPS

biological target: T1, estrogen receptor (ER) α as a …; assay: cell-based or functional assay; also: test concentration or dose not given here

| Binder | Fold Induction (ligand-induced β-galactosidase, two-hybrid) [fold] |
| --- | --- |
| B1 | 2.5 |
| B2 | 11 |
| B3 | 6 |
| B4 | 4.5 |
| B5 | 3.5 |
| B6 | 3.5 |

biological target: T2, Gal4 transcriptional activation domain …; assay: cell-based or functional assay

| Binder | Fold induction (yeast two-hybrid) [fold] |
| --- | --- |
| B7 | 1 |
| B8 | 1 |
| B9 | 10 |
| B10 | 10 |

biological target: T2, Gal4 transcriptional activation domain …; assay: cell-based or functional assay; remark: another data set of the same source

| Binder | β-galactosidase activity (yeast two-hybrid), CPA | β-galactosidase activity (yeast two-hybrid), DHT | β-galactosidase activity (yeast two-hybrid), No Lig | β-galactosidase activity (yeast two-hybrid), RU | β-galactosidase activity (yeast two-hybrid), MPA | β-galactosidase activity (yeast two-hybrid), Test |
| --- | --- | --- | --- | --- | --- | --- |
| B7 | 0.395 | 0.616 | 0.875 | 0.4 | – | – |
| B8 | 1.53 | 1.43 | 1.12 | 1.5 | 1.44 | 0.969 |
| B9 | 1.23 | 7.85 | 0.794 | 1.2 | 4.56 | 7.77 |
| B10 | 8.59 | 24.1 | 2.53 | 6.8 | 19.2 | 26.6 |

biological target: T3, ER α; assay: phage isolated on ERα-ERE; Buffer

| Binder | binding result |
| --- | --- |
| SSRPDAAFFGAKLSR [3B] | binds |
| SSRPSPSFWEKQLSR [4B] | binds |
| SSRPTAEWFRENLSR [5B] | binds |
| SRWWDTSWWLEELSR [6B] | binds |
| SSRIADLFWRLEPSR [1B] | binds |
| SRSYHGEWGVWTLSR [7B] | binds |
| SSDWCFGWGGWCASEAVSR (not fully specified; cysteine pairing not given here) [10B] | binds |
| SRNWDWAALELLPYPHPSR [9B] | binds |

biological target: T3, ER α; assay: phage isolated on ERα on plastic; ICI 182,780

| Binder | binding result |
| --- | --- |
| SSSTPGWWEWDWASR [1PI] | binds |
| SSYWDGSWRRKETCVSCSR [2PI] | binds |
| SSRTAEDYCFFADDYWCSR (also called 16E) [3PI] | binds |
| SSRALALFPVGMESR [4PI] | binds |
| SSDCESLTSYPHLKALCSR [5PI] | binds |
| SSTATALRDRLAYSR [6PI] | binds |
| SSGKTREHYREGTSR [7PI] | binds |

Source: patent publication US20040043420A1, “Method of identifying conformation-sensitive binding peptides and uses thereof” (priority 2003, published 2004)
